The target of this series is T1, DNA polymerase kappa core (hpol κ19-536) (Homo sapiens, UniProt Q9UBT6 19-536).
T1 sequence: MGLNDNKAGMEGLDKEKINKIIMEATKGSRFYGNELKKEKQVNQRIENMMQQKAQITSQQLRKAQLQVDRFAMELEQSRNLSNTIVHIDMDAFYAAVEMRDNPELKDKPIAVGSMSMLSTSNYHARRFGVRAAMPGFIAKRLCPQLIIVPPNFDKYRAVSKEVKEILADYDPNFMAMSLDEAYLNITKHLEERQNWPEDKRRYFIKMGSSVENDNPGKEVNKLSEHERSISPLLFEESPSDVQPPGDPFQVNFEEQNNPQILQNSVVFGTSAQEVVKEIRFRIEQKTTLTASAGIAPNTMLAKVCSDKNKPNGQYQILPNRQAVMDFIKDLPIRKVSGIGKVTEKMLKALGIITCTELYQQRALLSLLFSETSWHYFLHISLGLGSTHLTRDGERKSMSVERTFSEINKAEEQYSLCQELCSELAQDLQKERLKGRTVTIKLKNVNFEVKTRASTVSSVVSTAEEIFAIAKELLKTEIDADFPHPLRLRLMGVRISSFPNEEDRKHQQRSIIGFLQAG
The experiment in a line: fluorescence polarization. On the technique in general: Fluorescence polarisation rises when a labelled molecule tumbles more slowly, as on binding a larger partner.

B1: 11/28-mer non-G4 DNA (mixed)
DNA 1: ATCCTCCCCTA
DNA 2: TATGTGACTATGCTGGGTAGGGGAGGAT
B1 showed a Kd of 86 nM.

B2: 11/28-mer G4 DNA (mixed)
DNA 1: ATCCTCCCCTA
DNA 2: TGGGTGGGTAGGGTGGGTAGGGGAGGAT
For the molecule B2, the affinity, expressed as Kd, was 15 nM.

Usually Kd stands for the concentration at which binding is half-saturated. Lower therefore signals a tighter complex.

The values are drawn from publication PMC5113810.
